According to patent publication CN111138528A (INST MILITARY MEDICINE ACADEMY MILITARY SCIENCES PLA, dated 2020):

Target: GPdM (Ebola virus (EBOV), UniProt Q05320 33-632)
Experiment: ELISA, truncated GP coated, 5A8 titrated (method of Example 2)

B1: 单克隆抗体5A8 (antibody, V domains shown)
VH: EVQLLESGGGLVKPGGSLRLSCAASGFTFSDYYMNWIRQAPGKGLEWVSYISSSGKTIYYADSVKGRFTISRDNAKKSLYLQMNSLRAEDTAVYYCARDREIVISTTILLGSDHYAMDVWGQGTTVTVSS
VL: DIQMTQSPFTLSASVGDRVTITCRASQSINSYLNWYQQKPGKAPKLLIYSASSLQSGVPSRFSGSGSGTDFTLTISSLQPEDFAIYYCQQTYRTPYTFGQGTKVEIKT
B1 was tested. Which EC50 did it give?
The EC50 was 8.2 ng/mL.
